Series [1] concerns the target T1, Rv0792c (Mycobacterium tuberculosis, UniProt O86331).
T1 construct: His6-Rv0792c
The series is described as follows: […]; EMSA with Cy5-labeled native promoter. The format is binding.

Series [2] addresses T2, Rv0792c (HutC, GntR family) (Mycobacterium tuberculosis) (UniProt O86331).
T2 sequence (O86331 whole entry, looked up): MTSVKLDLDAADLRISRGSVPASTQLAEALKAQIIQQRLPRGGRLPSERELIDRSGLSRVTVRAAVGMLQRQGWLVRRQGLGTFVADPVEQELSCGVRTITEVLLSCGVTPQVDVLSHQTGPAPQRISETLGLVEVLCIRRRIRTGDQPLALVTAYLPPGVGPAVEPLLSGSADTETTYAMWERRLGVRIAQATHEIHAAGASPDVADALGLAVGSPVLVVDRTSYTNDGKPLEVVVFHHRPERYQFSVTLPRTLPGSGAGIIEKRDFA
Description: ALISA (plate-immobilized protein).

The target of series [3] is T2, Rv0792c (HutC, GntR family) (Mycobacterium tuberculosis). Description: competitive ALISA.
Series [4] concerns the molecule itself. The series is described as follows: AUC; sedimentation velocity; Rv0792c at 0.38, 0.76 and 1.52 mg/mL in 25 mM HEPES pH 7.2, 400 mM NaCl, 10% glycerol; 40,000 rpm; absorbance at 280 nm; c(s) analysis with SedFit; S20,w.

Consider `COc1cc(/C=C(\C#N)C(=O)c2ccc(O)c(O)c2)cc(I)c1O` [I-OMe-Tyrphostin, (2E)-2-(3,4-dihydroxybenzoyl)-3-(4-hydroxy-3-iodo-5-methoxyphenyl) acrylonitrile], for which, in series [1], the IC50 (in general, the concentration that gives 50% inhibition) was around 109 nM.

Regarding “TCTAGTCATTCGTCATAATCCCATCTGTTTCTTCCTCCTTCCGT [Rv0792c_2 aptamer (also Rv0729c_2)]”, in series [2], the Kd (commonly the constant that tells how readily two partners part at equilibrium) came out at 51 nM. Moreover, the IC50 in series [3] was 109 nM.

B1: Rv0792c from Mycobacterium tuberculosis, wild type, with an amino-terminal histidine tag (natural protein)
chain: MTSVKLDLDAADLRISRGSVPASTQLAEALKAQIIQQRLPRGGRLPSERELIDRSGLSRVTVRAAVGMLQRQGWLVRRQGLGTFVADPVEQELSCGVRTITEVLLSCGVTPQVDVLSHQTGPAPQRISETLGLVEVLCIRRRIRTGDQPLALVTAYLPPGVGPAVEPLLSGSADTETTYAMWERRLGVRIAQATHEIHAAGASPDVADALGLAVGSPVLVVDRTSYTNDGKPLEVVVFHHRPERYQFSVTLPRTLPGSGAGIIEKRDFA
notes: also called His6-Rv0792c; (His)6-Rv0792c; not shown: His6, N-terminal, kept
As to B1, the stoichiometry N (usually a count of units in the complex or per binding partner) in series [4] came out at 2.

The record behind these values is publication PMC9927256, “Structural and Functional Characterization of Rv0792c from Mycobacterium tuberculosis: Identifying Small Molecule Inhibitor against HutC Protein” (Microbiology Spectrum, 2022).
